Assay in all cases: cell-based or functional assay
Assay [1] deals with recombinant hGM-CSF derived from yeast (Leukine, Berlex) (human) (UniProt P04141).
Assay [2] deals with recombinant hGM-CSF from E. coli (Peprotech) (human) (UniProt P04141).
For assay [3], the target named is recombinant hGM-CSF expressed in E. coli (Fa. Biomol #2514) (human) (UniProt P04141).
recombinant hGM-CSF expressed in E. coli (Fa. Biomol #2514) (human), sequence (P04141 18-144 limits assumed): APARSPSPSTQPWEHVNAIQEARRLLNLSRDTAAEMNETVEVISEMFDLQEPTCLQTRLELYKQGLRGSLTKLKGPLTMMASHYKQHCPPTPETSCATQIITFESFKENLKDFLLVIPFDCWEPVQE

recombinant hGM-CSF from E. coli (Peprotech) (human), sequence (P04141 18-144 limits assumed): as above
recombinant hGM-CSF derived from yeast (Leukine, Berlex) (human), sequence (P04141 other isoform, or with tags, fused parts or gaps limits assumed, form in doubt): as the sequence (P04141 18-144 limits assumed) above, with R23L counted along it

Consider “human anti-human cytomegalovirus monoclonal antibody (hIgG)”, for which the TF-1 cell proliferation with 0.5 ng/mL rhGM-CSF (WST-1 assay) in assay [1] and in assay [2] was under 2 µg/mL each time.
On to “rat-anti-human-GM-CSF IgG2a BVD2-21C11 (Fa. BD, #554503) (antibody)”, for which the IC50 in TF-1 assay, hGM-CSF (E. coli) at 1.0 ng/ml final concentration in assay [3] was found to be 8.26 nM.

The values above are taken from US20140205611A1.
